# In patent US9505841B2, “Use of an anti-Ang2 antibody” (Samsung Electronics Co., Ltd., priority 2013, dated 2016):
# How the values were obtained:
# [1] = system: LLC (Lewis Lung Carcinoma); assay: LLC tumor growth model; format: in vivo, mouse; conditions: LLC in C57BL/6 mice; 10 mg/kg intraperitoneal three times a week; control Fc of IgG1
# Description: To see the tumor growth inhibitory effects of Ang2 antibody, a […] Xenograft model using a LLC (Lewis Lung Carcinoma) was employed.
# LLC cells (ATCC) were cultured using 10% FBS (Gibco)-supplemented DMEM (Gibco) media. 1×10^6 of LLC cells were re-suspended in 100 ul of PBS (Gibco) and then subcutaneously injected into 6˜8-week-old C57BL/6 mice (Jackson Laboratory) anesthetized with 1˜2% isoflurane.
# When the size of tumors reached 50˜100 mm^3, anti-Ang2 antibody (10D6) was injected at the concentration of 10 mg/kg via an intraperitoneal injection three times a week and the size of the tumors was measured.
# The size of tumor (V) was calculated using the following formula: Volume (V)=(width)2×length/2
# For comparison, the same experiment was performed to a control group treated with Fc of IgG1 and a comparative group treated with antibody 4H10 (refer to Example 3).
# Ang2-Tie2 binding = target: T1, Ang2-Tie2 binding (Homo sapiens, UniProt O15123); assay: Ang2-Tie2 binding competition ELISA; conditions: antibody 400 nM to 0.001 nM; 400 ng/ml FLAG-tagged hAng2; hTie2-Fc coated plate
# T1 construct: purchased R&D Systems (hTie2-Fc)
# T1 sequence (O15123 19-496): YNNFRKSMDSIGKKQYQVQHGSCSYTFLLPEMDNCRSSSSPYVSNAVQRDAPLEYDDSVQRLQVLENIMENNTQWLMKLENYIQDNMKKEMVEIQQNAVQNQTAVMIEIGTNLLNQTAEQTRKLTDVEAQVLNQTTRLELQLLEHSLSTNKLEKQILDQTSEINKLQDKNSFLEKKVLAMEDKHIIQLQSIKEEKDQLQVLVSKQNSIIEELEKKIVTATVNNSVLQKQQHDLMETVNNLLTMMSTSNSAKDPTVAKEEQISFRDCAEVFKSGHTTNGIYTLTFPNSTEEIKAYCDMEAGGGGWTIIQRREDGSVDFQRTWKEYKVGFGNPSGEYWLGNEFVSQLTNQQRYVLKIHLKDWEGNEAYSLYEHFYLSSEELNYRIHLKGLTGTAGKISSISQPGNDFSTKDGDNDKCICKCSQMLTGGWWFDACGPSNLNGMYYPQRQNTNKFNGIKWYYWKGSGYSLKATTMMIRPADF
# Description: Ang2-Tie2 binding competition ELISA was conducted using the antibody binding to Ang2 prepared in Example 2-1 above.
# More specifically, MaxiSorp™ flat-bottom plate (Nunc) of 96-well was coated with hTie2-Fc (R&D Systems) which is a protein bound with 4 ug (microgram)/ml of Fc of human IgG1. After that, the plate was washed five times with 0.05% (v/v) Tween-20-containing PBS (phosphate buffer saline) and then blocked with 1% (v/v) BSA (bovine serum albumin; Sigma)-containing PBS at a room temperature for 2 hour.
# For Ang2:Tie2 competition ELISA, each anti-Ang2 antibody obtained in Example 2 was placed at various concentrations of 400 nM to 0.001 nM into each well coated with the hTie-2/Fc fusion protein along with 1% (v/v) BSA and 400 ng/ml of a FLAG-tagged hAng2 and then, the plate was allowed to react at a room temperature for 2 hours and washed five times with PBST. […] Lastly, 100 ul (microliter) of TMB substrate (Cell Signaling) was added to each well of the plate to induce color development for 3 min. and then, the reaction was ceased by the addition of 100 ul of Stop solution (Cell Signaling) and OD450 values were measured on a plate reader (Molecular Devices). […]
# LLC tumor = assay: Co-administration of anti-Ang2 antibody and cisplatin in LLC lung cancer animal model; format: in vivo, mouse; conditions: LLC mice; antibody 10 mg/kg i.p. every three days, five times; cisplatin 3 mg/kg i.p. once; control Fc of IgG1
# Description: The synergistic effect of co-treatment of antibody 10D6 and cisplatin was examined.
# In particular, referring to Example 14, LLC tumor cells were subcutaneously injected into mice. When the size of tumors reached 50˜100 mm^3, anti-Ang2 antibody 10D6 was injected at the concentration of 10 mg/kg via an intraperitoneal injection every three days a total of five times. After administering antibody 10D6 twice, 3 mg/kg of cisplatin (Sigma-Aldrich) was intraperitoneally injected once. The size of tumor (V) was calculated using the following formula: Volume (V)=(width)2×length/2
# For comparison, the same experiment was performed to a control group treated with Fc of IgG1 and a comparative group treated with antibody 4H10.
# In addition, an experiment was performed to examine whether the synergistic effect obtained by co-administration of 10D6 and cisplatin as described above is due to the increased transporting efficiency of the administered cisplatin induced by the vascular normalization by treatment of 10D6. Cisplatin binds to DNA in a living body and induces crosslinking, thereby inducing cell death. Rat monoclonal anti-Cisplatin modified DNA (CP9/19) antibody (1:200, Abcam), which is capable of binding to DNA modified by cisplatin in tumor frozen sections, and hamster anti-CD31 antibody (1:200, Millipore), were used for immunofluorescence staining, and fluorescence images were obtained using LSM5 confocal microscope (Zeiss). In addition, to examine necrotic region, the tumor frozen sections were stained with H&E according to standard protocol, and then, Eosin+ cell region in tumor was observed. The obtained results are illustrated in FIG. 18C.
molecule,measurement,setting,value
"4H10: anti-Ang2 antibody inhibiting Ang2-Tie2 binding; heavy chain variable region SEQ ID NO: 12, light chain variable region SEQ ID NO: 13 (antibody, V domains shown, Synthetic (heavy chain variable region of 4H10); Synthetic (light chain variable region of 4H10)) VH: EVQLLESGGGLVQPGGSLRLSCAASGFTFSSYDMSWVRQAPGKGLEWVSLISPDSSSIYYADSVKGRFTISRDNSKNTLYLQMNSLRAEDTAVYYCAKDLISFWRGGFDYWGQGTLVTVSS VL: QSVLTQPPSASGTPGQRVTISCSGSSSNIGSNYVNWYQQLPGTAPKLLIYADSNRPSGVPDRFSGSKSGTSASLAISGLRSEDEADYYCGSWDYSLSGYVFGGGTKLTVLG",inhibition of growth of the tumor compared to the control group,[1],about 27%
same,inhibition of Ang2-Tie2 binding,Ang2-Tie2 binding,inhibiting Ang2-Tie2 binding
same,"tumor size decreased by, compared to the control",LLC tumor,29.2%
